# Measurements from patent US20140105889A1 (published 2014).
# Positions count from the first letter of the chain named. In names and notes the source's numbering stands.
# T1: human FcγRIIa type H (allotype H131) (human, UniProt P12318 36-217)
# T1 construct: also called FcγRIIaH; FcγRIIa(H)
# T1 sequence: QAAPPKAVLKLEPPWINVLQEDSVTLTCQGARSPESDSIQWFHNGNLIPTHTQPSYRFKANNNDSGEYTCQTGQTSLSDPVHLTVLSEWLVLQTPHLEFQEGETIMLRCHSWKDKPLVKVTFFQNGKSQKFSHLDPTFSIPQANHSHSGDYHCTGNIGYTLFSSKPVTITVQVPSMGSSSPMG
# T2: human FcγRIIb (human, UniProt P31994 43-217, limits assumed)
# T2 construct: also called FcγIIB; hFcgRIIb
# T2 sequence: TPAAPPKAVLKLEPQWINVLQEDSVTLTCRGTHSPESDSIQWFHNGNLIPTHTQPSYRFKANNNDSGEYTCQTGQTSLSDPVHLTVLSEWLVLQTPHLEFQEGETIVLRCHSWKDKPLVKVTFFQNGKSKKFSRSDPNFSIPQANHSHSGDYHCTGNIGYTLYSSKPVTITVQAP
# T3: human FcγRIIb (human, UniProt P31994 43-217)
# T3 construct: also called FcγIIB
# T3 sequence: T2 sequence
# B1: IL6R-BP194/IL6R-L (antibody, human IgG1)
# heavy: QVQLQESGPGLVKPSETLSLTCAVSGHSISHDHAWSWVRQPPGEGLEWIGFISYSGITNYNPSLQGRVTISRDNSKNTLYLQMNSLRAEDTAVYYCARSLARTTAMDYWGEGTLVTVSSASTKGPSVFPLAPSSKSTSGGTAALGCLVKDYFPEPVTVSWNSGALTSGVHTFPAVLQSSGLYSLSSVVTVPSSSLGTQTYICNVNHKPSNTKVDKKVEPKSCDKTHTCPPCPAPDYLGDDSVFLFPPKPKDTLMISRTPEVTCVVVDVSDEDGEVKFNWYVDGVEVHNAKTKPREEQYNSTYRVVSVLTVLHQDWLNGKEYKCKVSNAALPKPIEKTISKAKGQPREPQVYTLPPSRDELTKNQVSLTCLVKGFYPSDIAVEWESNGQPENNYKTTPPVLDSDGSFFLYSKLTVDKSRWQQGNVFSCSVMHEALHNHYTQESLSLSP
# light: DIQMTQSPSSLSASVGDRVTITCRASQDISSYLNWYQQKPGKAPKLLIYYTSRLHSGVPSRFSGSGSGTDFTFTISSLQPEDIATYYCQQGNTLPYTFGQGTKVEIK
# notes: Anti-human IL-6 receptor human IgG1 variant; copies: 2 + 2
# B2: IL6R-BP184/IL6R-L (antibody, human IgG1)
# heavy: B1 heavy with Y236L, D239G, D270H, A328K
# light: B1 light
# notes: as for B1
# B3: IL6R-BP189/IL6R-L (antibody, human IgG1)
# heavy: B1 heavy with D235E, Y236L
# light: B1 light
# notes: as for B1
# B4: IL6R-BP201/IL6R-L (antibody, human IgG1)
# heavy: B1 heavy with Y236L, D270H, A328K, K332R
# light: B1 light
# notes: as for B1
# B5: IL6R-BP202/IL6R-L (antibody, human IgG1)
# heavy: B1 heavy with D235E, Y236L, D270H, K332R
# light: B1 light
# notes: as for B1
# B6: IL6R-BP133/IL6R-L (antibody, human IgG1)
# heavy: B1 heavy with D239G, D270H, G273P, A328K
# light: B1 light
# notes: copies: 2 + 2
# B7: antibody with VH3-IgG1-F821 heavy chain and L(WT)-CK light chain (antibody)
# heavy: QVQLQESGPGLVKPSETLSLTCAVSGHSISHDHAWSWVRQPPGEGLEWIGFISYSGITNYNPSLQGRVTISRDNSKNTLYLQMNSLRAEDTAVYYCARSLARTTAMDYWGEGTLVTVSSASTKGPSVFPLAPSSKSTSGGTAALGCLVKDYFPEPVTVSWNSGALTSGVHTFPAVLQSSGLYSLSSVVTVPSSSLGTQTYICNVNHKPSNTKVDKKVEPKSCDKTHTCPPCPAPELRGGPKVFLFPPKPKDTLYISRTPEVTCVVVDVSHEDPEVKFNWYVDGVEVHNAKTKPREEQYNSTYRVVSVLTVLHQDWLNGKEYKCKVSNKALPAPIEKTISKAKGQPREPQVYTLPPSRDELTKNQVSLTCLVKGFYPSDIAVEWESNGQPENNYKTTPPVLDSDGSFFLYSKLTVDKSRWQQGNVFSCSVMHEALHYHYTQKSLSLSP
# light: not shown
# notes: copies: 2 + 2
# B8: antibody with VH3-IgG1-F939 heavy chain and L(WT)-CK light chain (antibody)
# heavy: B7 heavy with Y438V
# light: not shown
# notes: copies: 2 + 2
# B9: antibody with VH3-IgG1-F890 heavy chain and L(WT)-CK light chain (antibody)
# heavy: B7 heavy with R237L, K241S, Y438V
# light: not shown
# notes: copies: 2 + 2
# B10: antibody with VH3-IgG1-F1009 heavy chain and L(WT)-CK light chain (antibody)
# heavy: B7 heavy with T252V, T309Q, V310P, Q313A, Y438V
# light: not shown
# notes: copies: 2 + 2
# B11: antibody with mPM1H-mIgG1-mF14 heavy chain (antibody)
# heavy: DVQLQESGPVLVKPSQSLSLTCTVTGYSITSDHAWSWIRQFPGNKLEWMGYISYSGITTYNPSLKSRISITRDTSKNQFFLQLNSVTTGDTSTYYCARSLARTTAMDYWGQGTSVTVSSAKTTPPSVYPLAPGSAAQTNSMVTLGCLVKGYFPEPVTVTWNSGSLSSGVHTFPAVLQSDLYTLSSSVTVPSSTWPSETVTCNVAHPASSTKVDKKIVPRDCGCKPCICTVPEVSSVFIFPPKPKDVLYITLEPKVTCVVVDISKDDPEVQFSWFVDDVEVHTAQTQPREEQFNSTFRSVSELPIMHQDWLNGKEFKCRVNSAAFPAPIEKTISKTKGRPKAPQVYTIPPPKEQMAKDKVSLTCMITDFFPEDITVEWQWNGQPAENYKNTQPIMDTDGSYFVYSKLNVQKSNWEAGNTFTCSVLHEGLKNHHTEKSLSHSPGK
# light: not shown
# notes: also called mPM1-mIgG1-mF14; copies: 2 + 2
# B12: antibody with mPM1H-mIgG1-mF39 heavy chain (antibody)
# heavy: B11 heavy with P231K, S235K
# light: not shown
# notes: also called mPM1-mIgG1-mF39; copies: 2 + 2
# B13: antibody with mPM1H-mIgG1-mF40 heavy chain (antibody)
# heavy: B11 heavy with P231K, S235K, K429H, N430W
# light: not shown
# notes: also called mPM1-mIgG1-mF40; copies: 2 + 2
# B14: antibody with mPM1H-mIgG1-mF38 heavy chain (antibody)
# heavy: B11 heavy with K429H, N430W
# light: not shown
# notes: also called mPM1-mIgG1-mF38; copies: 2 + 2
# B15: F1078 (antibody, human IgG1, kappa, name in EU numbering)
# heavy: B7 heavy with R237L, K241S, E382N, E384S
# light: not shown
# notes: copies: 2 + 2
# B16: F1076 (antibody, human IgG1, kappa, name in EU numbering)
# heavy: B7 heavy with R237L, K241D, K328D, L330Y, Y438V
# light: not shown
# notes: copies: 2 + 2
# B17: F1072 (antibody, name in EU numbering)
# heavy: B7 heavy with R237L, K241S, Y438V, S442E
# light: not shown
# notes: copies: 2 + 2
# B18: F1099 (antibody, human IgG1, kappa, name in EU numbering)
# heavy: B7 heavy with R237L, K241S, K328D, L330Y
# light: not shown
# notes: copies: 2 + 2
# B19: F1079 (antibody, human IgG1, kappa, name in EU numbering)
# heavy: B7 heavy with R237L, K241S, E384N, N386S
# light: not shown
# notes: copies: 2 + 2
# B20: F1071 (antibody, human IgG1, kappa, name in EU numbering)
# heavy: B7 heavy with R237L, K241S, Y438V, Q440S
# light: not shown
# notes: copies: 2 + 2
# B21: F1213 (antibody, human IgG1, kappa, name in EU numbering)
# heavy: B7 heavy with R237L, K241S, L253N, Y438V
# light: not shown
# notes: copies: 2 + 2
# B22: F1254 (antibody, name in EU numbering)
# heavy: B7 heavy with T309Q, Y438V, Q440R, S442E
# light: not shown
# notes: copies: 2 + 2
# B23: antibody containing VH3-IgG4-F890 and L(WT)-CK (antibody)
# heavy: QVQLQESGPGLVKPSETLSLTCAVSGHSISHDHAWSWVRQPPGEGLEWIGFISYSGITNYNPSLQGRVTISRDNSKNTLYLQMNSLRAEDTAVYYCARSLARTTAMDYWGEGTLVTVSSASTKGPSVFPLAPCSRSTSESTAALGCLVKDYFPEPVTVSWNSGALTSGVHTFPAVLQSSGLYSLSSVVTVPSSSLGTKTYTCNVDHKPSNTKVDKRVESKYGPPCPPCPAPEFLGGPSVFLFPPKPKDTLYISRTPEVTCVVVDVSQEDPEVQFNWYVDGVEVHNAKTKPREEQFNSTYRVVSVLTVLHQDWLNGKEYKCKVSNKGLPSSIEKTISKAKGQPREPQVYTLPPSQEEMTKNQVSLTCLVKGFYPSDIAVEWESNGQPENNYKTTPPVLDSDGSFFLYSRLTVDKSRWQEGNVFSCSVMHEALHYHVTQKSLSLSL
# light: not shown
# notes: VH3-IgG4 with M252Y/N434Y/Y436V (EU numbering)
# B24: antibody containing VH3-IgG4-F939 and L(WT)-CK (antibody)
# heavy: B23 heavy with L234R, S238K
# light: not shown
# notes: VH3-IgG4 with L235R/S239K/M252Y/N434Y/Y436V (EU numbering)
# B25: antibody containing VH3-IgG2-F890 and L(WT)-CK (antibody)
# heavy: QVQLQESGPGLVKPSETLSLTCAVSGHSISHDHAWSWVRQPPGEGLEWIGFISYSGITNYNPSLQGRVTISRDNSKNTLYLQMNSLRAEDTAVYYCARSLARTTAMDYWGEGTLVTVSSASTKGPSVFPLAPCSRSTSESTAALGCLVKDYFPEPVTVSWNSGALTSGVHTFPAVLQSSGLYSLSSVVTVPSSNFGTQTYTCNVDHKPSNTKVDKTVERKCCVECPPCPAPPVAGPSVFLFPPKPKDTLYISRTPEVTCVVVDVSHEDPEVQFNWYVDGVEVHNAKTKPREEQFNSTFRVVSVLTVVHQDWLNGKEYKCKVSNKGLPAPIEKTISKTKGQPREPQVYTLPPSREEMTKNQVSLTCLVKGFYPSDIAVEWESNGQPENNYKTTPPMLDSDGSFFLYSKLTVDKSRWQQGNVFSCSVMHEALHYHVTQKSLSLSP
# light: not shown
# notes: VH3-IgG2 with M252Y/N434Y/Y436V (EU numbering)
# B26: antibody containing VH3-IgG2-F939 and L(WT)-CK (antibody)
# heavy: B25 heavy with A234R, S237K
# light: not shown
# notes: VH3-IgG2 with A235R/S239K/M252Y/N434Y/Y436V (EU numbering)
# B27: antibody containing VH3-IgG2 and L(WT)-CK (antibody)
# heavy: B25 heavy with Y250M, Y432N, V434Y
# light: not shown
# Molecular target: T1, human FcγRIIa type H (allotype H131)
# Assay: SPR (Biacore), antibody captured on the chip, FcγR as analyte
row,Binder,Kd [µM]
1,B1,6.5
2,B2,3
3,B3,2.1
4,B4,6.9
5,B5,9.2

# Molecular target: T4, human FcγRIIIa type V (allotype V158) (human, UniProt P08637 17-208, limits assumed)
# T4 construct: the assay used allotype V158; also called FcγRIIIaV; FcγRIIIa(V)
# Assay: as above
# T4 sequence (P08637 other isoform, or with tags, fused parts or gaps limits assumed): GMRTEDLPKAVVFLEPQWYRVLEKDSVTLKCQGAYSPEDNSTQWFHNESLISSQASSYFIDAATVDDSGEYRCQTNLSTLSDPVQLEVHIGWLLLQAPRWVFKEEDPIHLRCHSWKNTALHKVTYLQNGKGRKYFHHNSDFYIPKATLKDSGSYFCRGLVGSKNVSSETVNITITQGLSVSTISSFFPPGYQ
row,Binder,Kd [µM]
1,B1,27
2,B2,66
3,B3,49

# Molecular target: T2, human FcγRIIb
# Assay: SPR KD for FcγRIIb of parent IL6R-B3/IL6R-L divided by that of this variant
# From the text: (§1) Furthermore, KD(IIaR)/KD(IIb) and KD(IIaH)/KD(IIb) in the table respectively represent the value obtained by dividing the KD value of each variant for FcγRIIaR by the KD value of each variant for FcγRIIb, and the value obtained by dividing the KD value of each variant for FcγRIIaH by the KD value of each variant for FcγRIIb.
row,Binder,KD(IIb) of the parent polypeptide/KD(IIb) of the altered polypeptide
1,B6,5.5

# Molecular target: T5, mouse FcγRIV (mouse)
# T5 construct: Bought soluble receptor; also called mFcgRIV; mFcgR IV
# Assay: SPR (Biacore), antibody captured on Protein L, mouse FcγR as analyte, pH 7.4, 25 C
# Method: (§2) Binding activity between the antibodies and mouse FcγRI, FcγRII, FcγRIII and FcγRIV (R&D Systems, Sin θ Biological) (hereinafter referred to as mouse FcγRs) was evaluated using the Biacore T100 or T200 (GE Healthcare). The antibodies being tested were captured by Protein L (ACTIGEN) that was immobilized in suitable amounts on the CM4 Sensor Chip (GE Healthcare) by amine coupling. Next, the diluted mouse FcγRs and a running buffer used as a blank were injected to allow interaction with the antibody captured on the sensor chip. A buffer consisting of 20 mmol/L ACES, 150 mmol/L NaCl and 0.05% (w/v) Tween 20 (pH 7.4) was used for the running buffer, and this buffer was also used to dilute the mouse FcγRs. 10 mmol/L glycine-HCl (pH 1.5) was used to regenerate the sensor chip. All measurements were carried out at 25° C.
# T5 sequence (A0A0B4J1G0 21-203): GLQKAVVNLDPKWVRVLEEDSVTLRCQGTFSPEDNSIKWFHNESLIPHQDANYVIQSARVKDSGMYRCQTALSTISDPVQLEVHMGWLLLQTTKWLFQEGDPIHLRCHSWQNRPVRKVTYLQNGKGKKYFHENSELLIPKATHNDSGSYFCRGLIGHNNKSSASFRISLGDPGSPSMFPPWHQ
row,Binder,BINDING AMOUNT (RU)
1,B7,-3.8
2,B8,-7.3
3,B9,230
4,B10,7.2

# Molecular target: T5, mouse FcγRIV
# Assay: as above
# Remark: another data set of the same source
# Method: as §2
row,Binder,BINDING AMOUNT (RU)
1,B11,-8
2,B12,-3.8
3,B13,-8.9
4,B14,-4.1

# Molecular target: T6, human FcRn (human)
# T6 construct: also called hFcRn; soluble human FcRn complexed with β2-microglobulin
# Assay: SPR (Biacore), pH 7.0, 25 C, antibody captured by Protein L, human FcRn as analyte
# Method: (§3) A kinetic analysis of binding between human FcRn and the aforementioned antibodies was carried out using the Biacore T100 or T200 (GE Healthcare). The antibodies being tested were captured on the CM4 Sensor Chip (GE Healthcare) on which a suitable amount of Protein L (ACTIGEN) was suitably immobilized by amine coupling. Next, diluted human FcRn and a running buffer used as a blank were injected to allow the human FcRn to interact with the antibody captured on the sensor chip. A buffer consisting of 50 mmol/L sodium phosphate, 150 mmol/L NaCl and 0.05% (w/v) Tween 20 (pH 7.0 or pH 7.4) was used for the running buffer, and each buffer was also used to dilute the human FcRn. 10 mmol/L glycine-HCl (pH 1.5) was used to regenerate the sensor chip. All measurements of binding were carried out at 25° C. The KD(M) of each antibody to human FcRn was calculated based on kinetics parameters, i.e., the association rate constant ka (1/Ms) and the dissociation rate constant kd (1/s) calculated from a sensorgram obtained by the measurement. The Biacore T100 or T200 Evaluation Software (GE Healthcare) was used to calculate each parameter.
# T6 sequence (chain, as listed by the source limits assumed, chain 1 of 2): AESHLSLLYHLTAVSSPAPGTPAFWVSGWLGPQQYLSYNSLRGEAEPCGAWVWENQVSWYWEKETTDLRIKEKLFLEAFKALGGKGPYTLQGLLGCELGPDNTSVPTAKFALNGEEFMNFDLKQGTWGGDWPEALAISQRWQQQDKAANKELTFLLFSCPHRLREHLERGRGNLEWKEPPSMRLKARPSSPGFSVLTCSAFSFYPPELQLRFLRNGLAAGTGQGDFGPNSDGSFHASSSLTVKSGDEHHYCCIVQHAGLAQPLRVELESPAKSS
# T6 sequence (P61769 21-119 limits assumed, chain 2 of 2): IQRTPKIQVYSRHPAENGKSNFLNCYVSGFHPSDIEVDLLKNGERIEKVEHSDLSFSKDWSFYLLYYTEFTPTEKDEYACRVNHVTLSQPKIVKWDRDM
row,Binder,Kd [µM]
1,B15,0.47
2,B16,0.127
3,B17,0.135
4,B18,0.257
5,B19,0.344
6,B20,0.124

# Molecular target: T6, human FcRn
# Assay: as above
# Remark: another data set of the same source
# Method: as §3
row,Binder,Kd [µM]
1,B21,0.633
2,B22,0.0642

# Molecular target: T3, human FcγRIIb
# Assay: SPR (Biacore); KD of parent IL6R-B3/IL6R-L for FcγRIIb divided by KD of the variant for FcγRIIb
# From the text: as §1
row,Binder,KD(IIb) of the parent polypeptide/KD(IIb) of the altered polypeptide
1,B1,59.4
2,B2,24.5
3,B3,41.8
4,B4,77.1
5,B5,48.4

# Molecular target: T7, human FcγRIIIa(F) (human, UniProt P08637 17-208, limits assumed)
# T7 construct: also called FcgRIIIaF; hFcgRIIIa(F)
# Assay: SPR (Biacore), antibody captured by Protein L, FcγR as analyte, pH 7.4, 25°C; amount normalised to captured antibody
# Method: Binding activity between the antibodies and human FcγRIa, FcγRIIa(H), FcγRIIa(R), FcγRIIb and FcγRIIIa(F) (hereinafter referred to as human FcγRs) was evaluated using the Biacore T100 or T200 (GE Healthcare). The antibodies being tested were captured by Protein L (ACTIGEN) that was immobilized in suitable amounts on the CM4 Sensor Chip (GE Healthcare) by amine coupling. Next, the diluted human FcγRs and a running buffer used as a blank were injected to allow interaction with the antibodies captured on the sensor chip. A buffer consisting of 20 mmol/L ACES, 150 mmol/L NaCl and 0.05% (w/v) Tween 20 (pH 7.4) was used for the running buffer, and this buffer was also used to dilute the human FcγRs. 10 mmol/L glycine-HCl (pH 1.5) was used to regenerate the sensor chip. All measurements were carried out at 25° C.
# T7 sequence (P08637 other isoform, or with tags, fused parts or gaps limits assumed): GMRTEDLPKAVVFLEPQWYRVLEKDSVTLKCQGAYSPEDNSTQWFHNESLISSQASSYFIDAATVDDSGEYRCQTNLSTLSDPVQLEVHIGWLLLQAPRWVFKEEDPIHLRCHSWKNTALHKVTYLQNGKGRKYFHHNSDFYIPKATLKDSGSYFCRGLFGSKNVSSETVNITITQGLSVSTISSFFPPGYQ
row,Binder,BINDING AMOUNT (RU)
1,B23,3.4
2,B24,-1.7
3,B25,9.3
4,B26,0.6
5,B27,16.3
